Assay results: article PMC12534507

How the values were obtained:
[1] = molecular target: truncated human Derlin-1 (Derlin-1^Δ215-239) (human) (UniProt Q9BUN8); assay: cryo-EM structure
[2] = molecular target: wild-type C-terminally Strep-tagged Derlin-1 (human) (UniProt Q9BUN8); assay: cross-linking

Question: “truncated human Derlin-1 (Derlin-1^Δ215-239) (from UniProt Q9BUN8) (natural protein)” was tested. Which stoichiometry N [1] did it give?
Answer: Its stoichiometry N is 6.

Question: Which stoichiometry N [2] does the source give for “wild-type C-terminally Strep-tagged Derlin-1 (from UniProt Q9BUN8 1-251) (natural protein)” here?
Answer: Its stoichiometry N is 2.
